Source: patent US20260078157A1

Assays:
[1] = biological target: surface of live cells; test: association and dissociation on the surface of live cells; method not stated
[2] = biological target: human KLB and FGFR1c overexpressed on HEK293 cells (human) (UniProt Q86Z14); test: cell-based or functional assay
Sequence of UniProt Q86Z14 (Q86Z14 whole entry, chain 1 of 2): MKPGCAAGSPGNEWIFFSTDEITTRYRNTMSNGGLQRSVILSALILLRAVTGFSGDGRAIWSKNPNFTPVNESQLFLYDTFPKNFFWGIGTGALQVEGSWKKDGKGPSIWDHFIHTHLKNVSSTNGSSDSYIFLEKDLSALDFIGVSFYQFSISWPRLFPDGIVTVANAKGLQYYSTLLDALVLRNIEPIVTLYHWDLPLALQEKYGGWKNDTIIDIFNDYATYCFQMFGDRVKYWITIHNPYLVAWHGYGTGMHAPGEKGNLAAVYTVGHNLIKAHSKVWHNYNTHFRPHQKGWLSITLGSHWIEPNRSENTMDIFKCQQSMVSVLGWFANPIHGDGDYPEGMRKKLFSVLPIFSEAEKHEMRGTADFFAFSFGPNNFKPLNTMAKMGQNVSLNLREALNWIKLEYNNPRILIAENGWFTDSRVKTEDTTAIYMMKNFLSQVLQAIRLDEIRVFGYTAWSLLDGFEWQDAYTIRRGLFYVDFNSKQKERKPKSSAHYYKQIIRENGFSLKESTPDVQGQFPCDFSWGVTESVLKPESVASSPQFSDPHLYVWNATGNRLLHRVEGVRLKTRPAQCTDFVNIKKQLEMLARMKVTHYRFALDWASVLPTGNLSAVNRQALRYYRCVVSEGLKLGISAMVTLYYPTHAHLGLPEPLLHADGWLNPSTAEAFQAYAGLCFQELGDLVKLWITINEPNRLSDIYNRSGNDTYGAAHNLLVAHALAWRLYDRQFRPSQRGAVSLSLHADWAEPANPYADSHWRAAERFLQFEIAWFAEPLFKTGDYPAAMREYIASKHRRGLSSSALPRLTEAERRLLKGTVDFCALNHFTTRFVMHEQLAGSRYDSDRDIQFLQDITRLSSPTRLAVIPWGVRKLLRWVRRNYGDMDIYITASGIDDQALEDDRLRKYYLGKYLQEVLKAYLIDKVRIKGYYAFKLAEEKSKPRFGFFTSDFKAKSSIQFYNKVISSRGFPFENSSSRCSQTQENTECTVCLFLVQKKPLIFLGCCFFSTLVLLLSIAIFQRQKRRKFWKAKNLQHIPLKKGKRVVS
Sequence of UniProt Q86Z14 (P11362 22-822, chain 2 of 2, further chain): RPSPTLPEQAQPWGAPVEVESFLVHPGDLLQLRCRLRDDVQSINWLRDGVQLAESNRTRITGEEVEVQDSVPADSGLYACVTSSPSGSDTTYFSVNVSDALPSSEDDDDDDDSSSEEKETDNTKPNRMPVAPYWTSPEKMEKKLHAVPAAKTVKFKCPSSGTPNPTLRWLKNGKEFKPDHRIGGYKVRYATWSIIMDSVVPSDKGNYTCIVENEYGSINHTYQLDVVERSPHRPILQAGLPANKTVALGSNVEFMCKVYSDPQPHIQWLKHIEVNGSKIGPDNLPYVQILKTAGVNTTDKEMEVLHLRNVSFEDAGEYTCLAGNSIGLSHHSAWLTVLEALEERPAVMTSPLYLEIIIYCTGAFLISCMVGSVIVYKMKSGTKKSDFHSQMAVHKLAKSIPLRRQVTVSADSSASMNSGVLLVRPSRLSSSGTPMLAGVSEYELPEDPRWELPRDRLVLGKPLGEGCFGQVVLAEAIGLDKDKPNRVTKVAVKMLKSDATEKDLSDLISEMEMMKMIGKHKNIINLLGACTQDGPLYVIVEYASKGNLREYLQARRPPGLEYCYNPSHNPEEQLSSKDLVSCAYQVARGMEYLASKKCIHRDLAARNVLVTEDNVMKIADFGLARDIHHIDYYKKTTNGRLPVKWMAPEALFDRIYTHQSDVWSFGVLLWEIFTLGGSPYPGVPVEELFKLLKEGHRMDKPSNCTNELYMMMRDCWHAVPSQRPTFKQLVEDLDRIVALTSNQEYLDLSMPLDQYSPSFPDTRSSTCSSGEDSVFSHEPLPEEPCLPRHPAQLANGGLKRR

Q: What does the source list for Efruxifermin (EFX) (Fc fusion)?
A: fold more stable interaction, compared to either free FGF21 or a single FGF21 domain linked to an Fc domain [1]: > 100 fold; cell-based potency assay, Elk1 luciferase reporter in HEK293 cells overexpressing human KLB and FGFR1c; potency relative to ¾ EFX [2]: 2 fold
